The target of the test is RELMβ bait: RELMβ fused to rat CD4d3+4, BirA recognition site and 6X-histidine tag (mouse) (UniProt Q99P86). Kind of test: SPR.
Sequence of UniProt Q99P86 (Q99P86 24-105): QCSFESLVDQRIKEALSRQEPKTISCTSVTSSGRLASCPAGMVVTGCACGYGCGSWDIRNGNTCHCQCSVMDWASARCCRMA

For “HpBoRB, C-terminal 6X-His tagged, from the pSecTAG2A expression vector (natural protein)”, the Kd was less than 0.1 nM.

Source of the values: doi:10.1101/2025.05.27.656348.
